B1: Azoarcus group I ribozyme (parent)
chain: GUGCCUUGCGCCGGGAAACCACGCAAGGGAUGGUGUCAAAUUCGGCGAAACCUAAGCGCCCGCCCGGGCGUAUGGCAACGCCGAGCCAAGCUUCGGCGCCUGCGCCGAUGAAGGUGUAGAGACUAGACGGCACCCACCUAAGGCAAACGCUAUGGUGAAGGCAUAGUCCAGGGAGUGGCGAAAGUCACACAAACCGG

Variants of: B1
Experiment: reverse-splicing fitness (ratio to wild type); higher = more active; in vitro selection; Mg2+ level not given
How it was run: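 An in vitro group I ribozyme library with randomized positions was T7-transcribed and gel-purified. In triplicate, 10 pmol RNA in EPPS pH 7.5 was reacted with 50 pmoles of a 30-nt RNA substrate for 1 h at 37 °C across several added MgCl2 levels (1–48 mM), then stopped with EDTA. Products were reverse transcribed from a substrate-complementary primer, PCR-amplified and sequenced (HiSeq 4000). Fitness is a variant's read proportion after selection over that before, normalised to wild type.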

Point of comparison: C82G A111U A120U C150A U176C, reverse-splicing fitness 0.00858. Against it:
- C82G A111U C150G C169U U176C — higher, 0.0129
- C82G A111U C150G C169U U176A — higher, 0.00863
- C82G A111U A145G C150A C169G U176G — lower, 0.00671
- C82G A111U A145G C150A C169G U176A — higher, 0.0179
- C82G A111U A145G C150A C169G U176C — higher, 0.0282
- C82G A111U A120U C150A C169A U176C — lower, 0.00429
- C82G A111U A120U C150A C169A U176G — lower, 0.00233
- C82G A111U A120U C150A C169A U176A — lower, 0.00677
- C82G A111U A120U U176G — lower, 0.00464
- C82G A111U A120U U176A — higher, 0.0109
- C82G A111U A120U U176C — higher, 0.0167
- C82G A111U A120U C169U U176A — lower, 0.00485
- C82G A111U A120U C169U U176G — lower, 0.00182
- C82G A111U A120U C169U U176C — lower, 0.00393
- C82G A111U A145G C150A C169U — higher, 0.0113
- C82G A111U A145G C150A C169G — higher, 0.00989
- C82G A111U A145G C150A C169A — higher, 0.0112
- C82G A111U A120U C150G U176G — lower, 0.0026
- C82G A111U A120U C150G U176C — lower, 0.00683
- C82G A111U A120U C150G U176A — lower, 0.00389
- C82G A111U A145U C150A C169A U176G — lower, 0.00732
- C82G A111U A145U C150A C169A U176C — higher, 0.0126
- C82G A111U A145U C150A C169A U176A — higher, 0.0149
- C82G A111U A145C C150U C169G U176C — higher, 0.0132
- C82G A111U A145C C150U C169G U176G — lower, 0.00635
- C82G A111U A145C C150U C169G U176A — higher, 0.022
- C82G A111U A145G C169A U176C — higher, 0.0263
- C82G A111U A145G C169A U176A — higher, 0.0174
- C82G A111U A145G C169A U176G — lower, 0.00602
- C82G A111U A145U C150U C169G U176G — lower, 0.00659
- C82G A111U A145U C150U C169G U176C — higher, 0.0142
- C82G A111U A145U C150U C169G U176A — higher, 0.0132
- C82G A111U C150A C169U U176C — higher, 0.0161
- C82G A111U C150A C169U U176A — higher, 0.0148
- C82G A111U C150A C169U U176G — lower, 0.00776
- C82G A111U A120U A145U C150U C169G U176A — lower, 0.00344
- C82G A111U A120U A145U C150U C169G U176G — lower, 0.00218
- C82G A111U A120U A145U C150U C169G U176C — lower, 0.00287
- C82G A111U A145C C150A C169G U176G — lower, 0.00716
- C82G A111U A145C C150A C169G U176A — higher, 0.0227
- C82G A111U A145C C150A C169G U176C — higher, 0.0155
- C82G A111U A145U C150A C169G U176A — higher, 0.014
- C82G A111U A145U C150A C169G U176G — lower, 0.0066
- C82G A111U A145U C150A C169G U176C — higher, 0.0144
- C82G A111U A145G C150U C169U U176C — higher, 0.0146
- C82G A111U A145G C150U C169U U176A — higher, 0.0152
- C82G A111U A145G C150U C169U U176G — lower, 0.00638
- C82G A111U C150G U176G — lower, 0.0043
- C82G A111U C150G U176C — higher, 0.0207
- C82G A111U C150G U176A — higher, 0.01
- C82G A111U C150A C169A U176C — higher, 0.0206
- C82G A111U C150A C169A U176A — higher, 0.0193
- C82G A111U C150A C169A U176G — lower, 0.00814
- C82G A111U C150U C169G U176A — higher, 0.0149
- C82G A111U A145C C150U U176A — higher, 0.0473
- C82G A111U A145C C150U U176G — higher, 0.0188
- C82G A111U A145C C150U U176C — higher, 0.0544
- C82G A111U A145C C150A C169U — higher, 0.0105
- C82G A111U A145C C150A C169G — lower, 0.00822
- C82G A111U A145C C150A C169A — higher, 0.00868
- C82G A111U A120U C150G C169U — lower, 0.00549
- C82G A111U A120U C150G C169A — lower, 0.00722
- C82G A111U A120U C150G C169G — lower, 0.0064
- C82G A111U A120U C150A U176A — lower, 0.00758
- C82G A111U A120U C150A U176G — lower, 0.00383
- C82G A111U A145C C150U C169G — lower, 0.00762
- C82G A111U A145C C150U C169U — higher, 0.0104
- C82G A111U A145C C150U C169A — higher, 0.00882
- C82G A111U A145U C150U U176A — higher, 0.124
- C82G A111U A145U C150U U176C — higher, 0.152
- C82G A111U A145U C150U U176G — higher, 0.043
- C82G A111U A120U A145U C150U C169A U176C — lower, 0.0027
- C82G A111U A120U A145U C150U C169A U176A — lower, 0.00283
- C82G A111U A120U A145U C150U C169A U176G — lower, 0.00252
- C82G A111U A145U C150G C169U U176C — higher, 0.0115
- C82G A111U A145U C150G C169U U176A — lower, 0.00836
- C82G A111U A145U C150G C169U U176G — lower, 0.00664
- C82G A111U C150U C169G — higher, 0.00914
- C82G A111U C150U C169A — higher, 0.0106
- C82G A111U A145G C150A — higher, 0.0434
- C82G A111U A145G C150U — higher, 0.298
- C82G A111U A145G C150G — higher, 0.0339
- C82G A111U A120U A145U C169U — lower, 0.00419
